Test results from US20220267469A1 (LIPUM, published 2022).
Changes are numbered by the printed parent chain. Names may count otherwise. Each block holds one binder with its values, some of them ahead of it.

Tests used:
[1] = target: T1, Biotinylated human BSSL (human, UniProt P19835 21-753, Biotinylated on glycosacarides, 30-40 biotin/BSSL); assay: flow cytometry displacement assay; 1.5 ug antibody, 1 ug b-hBSSL
T1 construct: hBSSL biotinylated in house; also called b-hBSSL; human BSSL-biotin
T1 sequence: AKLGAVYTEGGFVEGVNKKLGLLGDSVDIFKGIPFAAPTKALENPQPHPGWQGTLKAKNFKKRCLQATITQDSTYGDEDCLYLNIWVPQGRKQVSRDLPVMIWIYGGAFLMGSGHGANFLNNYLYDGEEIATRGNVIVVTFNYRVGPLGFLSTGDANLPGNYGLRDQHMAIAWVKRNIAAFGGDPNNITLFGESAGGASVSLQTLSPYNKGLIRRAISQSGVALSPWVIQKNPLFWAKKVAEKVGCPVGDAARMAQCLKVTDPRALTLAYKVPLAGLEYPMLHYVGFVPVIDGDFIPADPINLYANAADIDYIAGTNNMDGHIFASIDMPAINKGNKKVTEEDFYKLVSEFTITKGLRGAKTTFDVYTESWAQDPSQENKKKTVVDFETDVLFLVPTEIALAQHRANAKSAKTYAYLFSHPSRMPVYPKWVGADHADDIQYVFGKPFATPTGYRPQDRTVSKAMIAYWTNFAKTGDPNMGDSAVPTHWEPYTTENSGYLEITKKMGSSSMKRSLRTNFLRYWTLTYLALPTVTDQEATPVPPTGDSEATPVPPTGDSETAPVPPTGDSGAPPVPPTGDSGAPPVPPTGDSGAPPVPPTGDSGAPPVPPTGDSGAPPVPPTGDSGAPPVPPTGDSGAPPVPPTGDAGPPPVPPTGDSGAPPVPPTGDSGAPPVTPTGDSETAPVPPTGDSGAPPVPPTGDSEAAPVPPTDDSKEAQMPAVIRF
Description: (§1) The 28 BSSL-specific hIgG4 antibodies and the five reference antibodies at different concentrations (ranging from 0.5 μg to 3.0 μg per reaction; see Table 10) were added to b-hBSSL (1 μg per reaction, see Table 2) in round-bottom polystyrene tubes, lx PBS (pH 7.4) was added to a final volume of 20 μl and the antibody/b-hBSSL mixtures were incubated for 30 min. at +4° C. to facilitate binding of antibodies to BSSL. Buffy coat (50 μl) was then added to each antibody/b-hBSSL mixture and incubation continued for another 30 min at +4° C. Thereafter, 2 ml of FACS lysing solution (BD Biosciences) was added and the cells were incubated for 10 min at room temperature in order to lyse erythrocytes and fix the white blood cells. The cells were then centrifuged for 5 min. at 200×g, the resulting pellets were washed by adding 2 ml of FACS buffer (1×PBS supplemented with 1% FCS and 0.1% NaN3) and centrifuged again. Finally, the supernatants were discarded and the cells were resuspended in the last drop of liquid, approximately 50 μl.
(§2) 5 μl of BV421-labelled anti-human CD14 (BD Biosciences) and 5 μl of BB515-labelled streptavidin (BD Biosciences) was added to each tube and incubated for 30 min, at +4° C., protected from light. Thereafter, cells were washed twice with FACS buffer, resuspended in 500 μl FACS buffer, and run on BD LSRII flow cytometer (BD Biosciences). Finally, data were analyzed using FlowJo software (BD Biosciences).

[2] = target: T1, Biotinylated human BSSL; assay: flow cytometry displacement assay; 3.0 ug antibody, 1 ug b-hBSSL
Description: as §1, §2

[3] = target: T1, Biotinylated human BSSL; assay: flow cytometry displacement assay; 2.0 ug antibody, 1 ug b-hBSSL
Description: as §1, §2

[4] = target: T2, Mouse BSSL, recombinant (mouse, UniProt Q64285 21-599); assay: SPR steady state, hIgG4 S228P captured by anti-Fab
T2 construct: Bought (R&D Systems, Cat. no 5658-CE); also called mBSSL; murine BSSL
T2 sequence: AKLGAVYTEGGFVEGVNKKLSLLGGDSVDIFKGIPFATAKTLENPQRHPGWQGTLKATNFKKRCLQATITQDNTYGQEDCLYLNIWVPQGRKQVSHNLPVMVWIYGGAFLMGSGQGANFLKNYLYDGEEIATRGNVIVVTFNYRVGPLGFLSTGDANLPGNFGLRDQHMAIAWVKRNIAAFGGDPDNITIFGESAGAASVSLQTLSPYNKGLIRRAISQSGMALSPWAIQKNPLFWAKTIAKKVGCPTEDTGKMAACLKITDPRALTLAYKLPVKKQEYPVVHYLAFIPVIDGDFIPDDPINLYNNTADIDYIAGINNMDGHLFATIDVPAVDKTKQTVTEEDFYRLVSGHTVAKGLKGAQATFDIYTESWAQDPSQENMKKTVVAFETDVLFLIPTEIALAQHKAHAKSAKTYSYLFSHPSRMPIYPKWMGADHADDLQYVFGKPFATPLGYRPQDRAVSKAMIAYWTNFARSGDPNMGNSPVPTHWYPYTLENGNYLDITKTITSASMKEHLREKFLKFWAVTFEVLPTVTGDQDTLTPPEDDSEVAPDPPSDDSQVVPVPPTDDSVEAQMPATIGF
Description: (§3) Kinetic parameters of the hIgG4 S228P clones were determined by SPR using BIACORE® T200 (GE Healthcare). Single cycle kinetics was used to measure the affinity of the purified hIgG4 molecules to human and mouse BSSL. An anti-Fab antibody (GE Healthcare, #28958325) was immobilized on a CM5 S sensor chip by primary amine coupling using NHS-EDC chemistry. hIgG4 was captured by the anti-Fab antibody, and subsequently, five different concentrations of hBSSL (1:5 dilutions starting from 50 nM) or mBSSL (1:5 dilutions starting from 500 nM) were injected over the surface. The sensor chip surface was regenerated with 10 mM glycine-HCl pH 2.1. For binding to human BSSL, single cycle kinetic data was fitted to a 1:1 binding model and kinetic parameters were retrieved using software BlAevaluation. For mouse BSSL, a steady state analysis was performed by plotting the response level at equilibrium against each concentration, and KD values were retrieved by the BlAevalution software.

[5] = target: T1, Biotinylated human BSSL; assay: flow cytometry displacement assay; 1.0 ug antibody, 1 ug b-hBSSL
Description: as §1, §2

[6] = target: T1, Biotinylated human BSSL; assay: flow cytometry displacement assay; 0.5 ug antibody, 1 ug b-hBSSL
Description: as §1, §2

[7] = target: T3, Human BSSL (bile salt-stimulated lipase), native (human, UniProt P19835 21-753); assay: SPR single cycle kinetics, hIgG4 S228P captured by anti-Fab
T3 construct: Native full-length protein purified from human milk (Astra Hässle AB); also called hBSSL; non-biotinylated human BSSL
T3 sequence: T1 sequence
Description: as §3

- percentage reduction of b-hBSSL binding to CD14+ monocytes [1]: 39%
- percentage reduction of b-hBSSL binding to CD14+ monocytes [2]: 51%
- percentage reduction of b-hBSSL binding to CD14+ monocytes [3]: 43%
- Kd [4]: 83 nM
- percentage reduction of b-hBSSL binding to CD14+ monocytes [5]: 12%
- percentage reduction of b-hBSSL binding to CD14+ monocytes [6]: 12%
- Kd [7]: 8 nM
B1: S-SL048-66 hIgG4 S228P (antibody, V domains shown)
VH: QVQLVQSGAEVKKPGASVKVSCKASGYTFTSYNMHWVRQAPGQGLEWMGVINPGDGATSYNQKFKGRVTMTRDTSTSTVYMELSSLRSEDTAVYYCARDYYGSSPLGYWGQGTLVTVSS
VL: DIQMTQSPSSLSASVGDRVTITCSASQSISYMNWYQQKPGKAPKLLIYDASSLASGVPSRFSGSGSGTDFTLTISSLQPEDFATYYCHQRSSTPTFGQGTKLEIK
notes: Tested as human IgG4 S228P

- percentage reduction of b-hBSSL binding to CD14+ monocytes [1]: 26%
- percentage reduction of b-hBSSL binding to CD14+ monocytes [2]: 69%
- Kd [4]: 199 nM
- percentage reduction of b-hBSSL binding to CD14+ monocytes [5]: -1%
- percentage reduction of b-hBSSL binding to CD14+ monocytes [6]: 12%
- Kd [7]: 1.7 nM
B2: S-SL048-103 hIgG4 S228P (antibody, V domains shown)
VH: B1 VH with N61A
VL: B1 VL with S24R, Q27S, N33H, D49A, A50T, T93S
notes: Tested as human IgG4 S228P

- percentage reduction of b-hBSSL binding to CD14+ monocytes [1]: 21%
- percentage reduction of b-hBSSL binding to CD14+ monocytes [2]: 39%
- percentage reduction of b-hBSSL binding to CD14+ monocytes [3]: 35%
- Kd [4]: 30 nM
- percentage reduction of b-hBSSL binding to CD14+ monocytes [5]: 23%
- percentage reduction of b-hBSSL binding to CD14+ monocytes [6]: 5%
B3: S-SL048-65 hIgG4 S228P (antibody, V domains shown)
VH: B1 VH with M48I, N61A
VL: B1 VL with M32L, A54P, T93S
notes: Tested as human IgG4 S228P

- percentage reduction of b-hBSSL binding to CD14+ monocytes [1]: 50%
- percentage reduction of b-hBSSL binding to CD14+ monocytes [2]: 68%
- percentage reduction of b-hBSSL binding to CD14+ monocytes [3]: 61%
- Kd [4]: 41 nM
- percentage reduction of b-hBSSL binding to CD14+ monocytes [5]: 23%
- percentage reduction of b-hBSSL binding to CD14+ monocytes [6]: 28%
- Kd [7]: 0.8 nM
B4: S-SL048-48 hIgG4 S228P (antibody, V domains shown)
VH: B1 VH with M48I, N61A, K65Q
VL: B1 VL with S24R, Q27P, D49A, A50T, S52R, A54Q, T93S
notes: Tested as human IgG4 S228P
